Laboratory results reported in patent US20180110770A1, “FERROPTOSIS AND GLUTAMINOLYSIS INHIBITORS AND METHODS OF TREATMENT” (MEMORIAL SLOAN-KETTERING CANCER CENTER, priority 2015, published 2018).

B1: bovine holo-transferrin: commercial iron-bound bovine holo-transferrin (Sigma) (protein, UniProt Q29443 20-704, looked up)
Serotransferrin: DPERTVRWCTISTHEANKCASFRENVLRILESGPFVSCVKKTSHMDCIKAISNNEADAVTLDGGLVYEAGLKPNNLKPVVAEFHGTKDNPQTHYYAVAVVKKDTDFKLNELRGKKSCHTGLGRSAGWNIPMAKLYKELPDPQESIQRAAANFFSASCVPCADQSSFPKLCQLCAGKGTDKCACSNHEPYFGYSGAFKCLMEGAGDVAFVKHSTVFDNLPNPEDRKNYELLCGDNTRKSVDDYQECYLAMVPSHAVVARTVGGKEDVIWELLNHAQEHFGKDKPDNFQLFQSPHGKDLLFKDSADGFLKIPSKMDFELYLGYEYVTALQNLRESKPPDSSKDECMVKWCAIGHQERTKCDRWSGFSGGAIECETAENTEECIAKIMKGEADAMSLDGGYLYIAGKCGLVPVLAENYKTEGESCKNTPEKGYLAVAVVKTSDANINWNNLKDKKSCHTAVDRTAGWNIPMGLLYSKINNCKFDEFFSAGCAPGSPRNSSLCALCIGSEKGTGKECVPNSNERYYGYTGAFRCLVEKGDVAFVKDQTVIQNTDGNNNEAWAKNLKKENFEVLCKDGTRKPVTDAENCHLARGPNHAVVSRKDKATCVEKILNKQQDDFGKSVTDCTSNFCLFQSNSKDLLFRDDTKCLASIAKKTYDSYLGDDYVRAMTNLRQCSTSKLLEACTFHKP
modifications: iron-bound
B2: bovine apo-transferrin: iron-free bovine apo-transferrin (protein, UniProt Q29443 20-704, looked up)
Serotransferrin: B1 Serotransferrin
modifications: iron-free

System: bax/bak-DKO MEFs
Test: Death-inducing activity of transferrin and L-Gln under amino acid starvation
Type: cell-based, mouse
Conditions: with smFBS, 12 hrs
Protocol: To induce cell death, 80%-confluent cells were washed with PBS twice, and then cultured in amino acid-free medium, with specific factors added as indicated in individual experiments. Cell death was analyzed by propidium iodide (PI) staining coupled with microscopy or flow cytometry. Alternatively, cell viability was determined using the CellTiter-Glo luminescent Cell Viability Assay (Promega). In assays using WT MEFs, viability was calculated by normalizing ATP levels to cells treated with amino acid-starvation in the presence of 10% (v/v) diFBS, while in assays using bax/bak-DKO MEFs, ATP levels were normalized to cells treated with amino acid and FBS double starvation.

| Molecule | induction of cell death in the presence of smFBS |
| --- | --- |
| B1 | induced robust cell death |
| B2 | does not possess killing activity |
